The source of these data is patent US20170099813.

Test in all cases: cell_activity
In data set [1] the test system is ssSRY1.2 TALEN right monomer (artificial). The following applies: pair with p3; Surveyor day 3, swine fibroblasts.
For data set [2], the system named is ssSRY1.3 TALEN left monomer (artificial). The following applies: pair with p6; Surveyor day 3, swine fibroblasts.
Data set [3] deals with ssSRY1.3 TALEN right monomer (artificial). Conditions: pair with p5; Surveyor day 3, swine fibroblasts.
The test system of data set [4] is ssSRY1.2 TALEN left monomer (artificial). Conditions: pair with p4; Surveyor day 3, swine fibroblasts.
The test system of data set [5] is ssSRY1.1 TALEN left monomer (artificial). Conditions: pair with p2; Surveyor day 3, swine fibroblasts; 46.3% HDR with ssODN.
Data set [6] has as its system ssSRY1.1 TALEN right monomer (artificial). Conditions: pair with p1; Surveyor day 3, swine fibroblasts; 46.3% HDR with ssODN.

In data set [1], “GCAAGTGGCTGGGATGC (double strand) [ssSRY1.2 right half-site]” gave an activity of 35 % NHEJ.

Take “CAGCAAGTGGCTGGGA (double strand) [ssSRY1.3 left half-site]”: the activity in data set [2] is 16.2 % NHEJ.

The sequence “TTACAGAAGCCGAAA (double strand) [ssSRY1.3 right half-site]” gave an activity in data set [3] of 16.2 % NHEJ.

With “AGAGAACCCTCAAATG (double strand) [ssSRY1.2 left half-site]”, the activity in data set [4] was 35 % NHEJ.

With “GAACGCTTTCATTGTG (double strand) [ssSRY1.1 left half-site]”, the activity in data set [5] turned out to be 30 % NHEJ.

The sequence “GGAGAAAAGTGGCTCT (double strand) [ssSRY1.1 right half-site]” registered an activity in data set [6] of 30 % NHEJ.
